From patent publication US20190031718A1
Values belong to the substance of their own block, whether it stands above or below them.

Legend:
[1] = target: TAT-CaM (HIV; human); assay: BLI, dissociation upon exposure to EDTA
[2] = target: TAT-CaM (HIV; human); assay: BLI, dissociation after moving sensors to buffer with 10 mM EDTA (1 µM sample)
[3] = target: TAT-CaM (HIV; human); assay: BLI (Octet QK), biotinylated TAT-CaM on streptavidin sensors, cargo as analyte, global 1:1 association-then-dissociation fit
[4] = target: troponin inhibitory peptide-myoglobin; assay: BLI, sensor exposed to the highest analyte concentration, then dipped into buffer with EDTA
[5] = target: troponin inhibitory peptide-myoglobin; assay: BLI, biotinylated TAT-troponin on streptavidin sensors, troponin inhibitory peptide-myoglobin as analyte (1 µM to 63 nM), one-state association-then-dissociation fit
[6] = target: CBS-myoglobin; assay: BLI, sensor exposed to the highest analyte concentration, then dipped into buffer with EDTA
[7] = target: CBS-myoglobin; assay: BLI, biotinylated CPP-adapter on streptavidin sensors, CBS-myoglobin as analyte (1 µM to 63 nM), one-state association-then-dissociation fit
[8] = target: CBS-myoglobin; assay: BLI, dissociation in buffer with EDTA
[9] = target: TAT-CaM (HIV; human); assay: BLI (Octet QK), biotinylated TAT-CaM on streptavidin sensors, eNOS as analyte, global 1:1 association-then-dissociation fit

endothelial nitric oxide synthase (enzyme), sequence (P29473 2-1205): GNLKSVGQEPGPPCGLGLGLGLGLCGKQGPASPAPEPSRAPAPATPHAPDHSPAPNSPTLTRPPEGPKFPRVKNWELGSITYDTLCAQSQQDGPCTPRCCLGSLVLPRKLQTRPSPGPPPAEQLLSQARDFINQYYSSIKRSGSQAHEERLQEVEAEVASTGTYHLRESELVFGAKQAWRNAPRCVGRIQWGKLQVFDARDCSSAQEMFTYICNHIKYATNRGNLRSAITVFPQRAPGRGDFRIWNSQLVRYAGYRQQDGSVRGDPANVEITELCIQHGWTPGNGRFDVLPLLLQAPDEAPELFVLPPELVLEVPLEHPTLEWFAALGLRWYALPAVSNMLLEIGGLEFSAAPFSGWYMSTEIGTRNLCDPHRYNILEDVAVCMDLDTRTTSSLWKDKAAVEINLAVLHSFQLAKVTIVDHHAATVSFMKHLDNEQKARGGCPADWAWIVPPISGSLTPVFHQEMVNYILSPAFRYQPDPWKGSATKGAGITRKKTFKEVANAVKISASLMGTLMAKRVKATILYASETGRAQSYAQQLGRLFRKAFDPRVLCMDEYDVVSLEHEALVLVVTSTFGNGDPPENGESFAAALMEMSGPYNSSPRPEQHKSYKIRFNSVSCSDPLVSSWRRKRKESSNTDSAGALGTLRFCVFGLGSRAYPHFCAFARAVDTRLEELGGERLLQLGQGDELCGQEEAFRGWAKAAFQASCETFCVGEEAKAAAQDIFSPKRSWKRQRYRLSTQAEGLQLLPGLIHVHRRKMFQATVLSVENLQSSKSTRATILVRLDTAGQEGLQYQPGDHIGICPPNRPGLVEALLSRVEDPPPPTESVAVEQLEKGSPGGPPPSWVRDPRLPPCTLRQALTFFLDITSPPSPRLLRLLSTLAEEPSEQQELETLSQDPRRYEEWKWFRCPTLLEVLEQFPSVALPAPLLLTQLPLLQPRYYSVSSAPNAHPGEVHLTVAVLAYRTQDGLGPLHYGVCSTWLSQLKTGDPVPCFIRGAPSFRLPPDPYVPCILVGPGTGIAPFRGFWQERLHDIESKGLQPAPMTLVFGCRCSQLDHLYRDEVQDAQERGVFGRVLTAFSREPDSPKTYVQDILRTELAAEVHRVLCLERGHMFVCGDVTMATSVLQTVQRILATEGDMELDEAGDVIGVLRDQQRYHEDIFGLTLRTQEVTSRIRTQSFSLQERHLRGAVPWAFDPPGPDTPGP
CBS-HRP, sequence (P00433 31-338): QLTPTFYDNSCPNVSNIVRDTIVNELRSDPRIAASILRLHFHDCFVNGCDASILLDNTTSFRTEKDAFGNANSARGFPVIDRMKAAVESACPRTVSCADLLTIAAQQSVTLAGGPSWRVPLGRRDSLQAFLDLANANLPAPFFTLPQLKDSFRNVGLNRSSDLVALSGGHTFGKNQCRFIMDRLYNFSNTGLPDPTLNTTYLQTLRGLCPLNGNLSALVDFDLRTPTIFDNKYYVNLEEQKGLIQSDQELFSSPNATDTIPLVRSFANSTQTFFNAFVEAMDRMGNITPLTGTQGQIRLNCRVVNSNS

Substance: CBS-HRP (from UniProt P00433 31-338) (enzyme)
koff (EDTA) [1]: 0.1 s⁻¹
koff (EDTA) [2]: 0.2 s⁻¹
Kd [3]: 0.16 µM
koff [3]: 0.00028 s⁻¹
kon [3]: 1700 M⁻¹ s⁻¹

Substance: TAT-troponin
koff (EDTA) [4]: 0.018 s⁻¹
kon [5]: 3700 M⁻¹ s⁻¹

koff (EDTA) [6]: 0.2 s⁻¹
Kd [7]: 0.0133 µM
koff [7]: 0.00013 s⁻¹
kon [7]: 9400 M⁻¹ s⁻¹
koff (EDTA) [8]: 0.1 s⁻¹
Substance: SAP(E)-CaM

Substance: CBS-β-Gal (enzyme)
koff (EDTA) [1]: 0.1 s⁻¹
koff (EDTA) [2]: 0.05 s⁻¹
Kd [3]: 0.073 µM
koff [3]: 0.00067 s⁻¹
kon [3]: 9200 M⁻¹ s⁻¹

Substance: CBS-myoglobin
koff (EDTA) [1]: 0.1 s⁻¹
koff (EDTA) [2]: 0.09 s⁻¹
Kd [3]: 0.0009 µM
koff [3]: 5.5e-05 s⁻¹
kon [3]: 59000 M⁻¹ s⁻¹

Substance: endothelial nitric oxide synthase (enzyme)
Kd [9]: 0.015 µM
koff [9]: 0.00018 s⁻¹
kon [9]: 12000 M⁻¹ s⁻¹

Substance: TAT-calmodulin like protein 3 (from UniProt P27482 1-149)
koff (EDTA) [6]: 0.07 s⁻¹
Kd [7]: 0.0298 µM
koff [7]: 0.00018 s⁻¹
kon [7]: 6100 M⁻¹ s⁻¹
koff (EDTA) [8]: 0.1 s⁻¹

Substance: TAT-CaM 2.0 (from UniProt P0DP23 2-149)
koff (EDTA) [6]: 0.17 s⁻¹
kon [7]: 4900 M⁻¹ s⁻¹
koff (EDTA) [8]: 0.1 s⁻¹
